Results as given in article doi:10.1101/2023.10.30.564668 (bioRxiv, 2023).

Target: RABV-G domain III (Rabies virus, strain CVS-11 (GenBank …, stabilised))
Test: crystal structure

B1: CR57 diabody (other)
VH: EVQLVQSGAEVKKPGSSVKVSCKASGGTFNRYTVNWVRQAPGQGLEWMGGIIPIFGTANYAQRFQGRLTITADESTSTAYMELSSLRSDDTAVYFCARENLDNSGTYYYFSGWFDPWGQGTLVTVSS
VL: QSALTQPRSVSGSPGQSVTISCTGTSSDIGGYNFVSWYQQHPGKAPKLMIYDATKRPSGVPDRFSGSKSGNTASLTISGLQAEDEADYYCCSYAGDYTPGVVFGGGTKLTVL
  stoichiometry N: 2 domain III per diabody
